Laboratory results: patent US20260116958A1 (University of California, published 2026)
Read-outs that look alike come from different tables or passages of the source.

How the values were obtained:
[1] = biological target: inactive BoNT/G (BoNT/Gi) (Clostridium botulinum) (UniProt Q60393); experiment: titration on yeast-displayed scFv, flow cytometry, fit y = m1 + m2*M0/(m0+m3)
[2] = biological target: inactive BoNT/G (BoNT/Gi) (Clostridium botulinum) (UniProt Q60393); experiment: scFv on yeast surface
[3] = biological target: inactive BoNT/G (BoNT/Gi) (Clostridium botulinum) (UniProt Q60393); experiment: flow cytometry, scFv on yeast
[4] = biological target: inactive BoNT/G (BoNT/Gi) (Clostridium botulinum) (UniProt Q60393); experiment: FACS, scFv on yeast
[5] = biological target: inactive BoNT/G (BoNT/Gi) (Clostridium botulinum) (UniProt Q60393); experiment: flow cytometry, scFv on yeast surface
[6] = biological target: T1, inactive BoNT/G (BoNT/Gi) (Clostridium botulinum, UniProt Q60393 1-1297); experiment: FACS, scFv on yeast
T1 sequence: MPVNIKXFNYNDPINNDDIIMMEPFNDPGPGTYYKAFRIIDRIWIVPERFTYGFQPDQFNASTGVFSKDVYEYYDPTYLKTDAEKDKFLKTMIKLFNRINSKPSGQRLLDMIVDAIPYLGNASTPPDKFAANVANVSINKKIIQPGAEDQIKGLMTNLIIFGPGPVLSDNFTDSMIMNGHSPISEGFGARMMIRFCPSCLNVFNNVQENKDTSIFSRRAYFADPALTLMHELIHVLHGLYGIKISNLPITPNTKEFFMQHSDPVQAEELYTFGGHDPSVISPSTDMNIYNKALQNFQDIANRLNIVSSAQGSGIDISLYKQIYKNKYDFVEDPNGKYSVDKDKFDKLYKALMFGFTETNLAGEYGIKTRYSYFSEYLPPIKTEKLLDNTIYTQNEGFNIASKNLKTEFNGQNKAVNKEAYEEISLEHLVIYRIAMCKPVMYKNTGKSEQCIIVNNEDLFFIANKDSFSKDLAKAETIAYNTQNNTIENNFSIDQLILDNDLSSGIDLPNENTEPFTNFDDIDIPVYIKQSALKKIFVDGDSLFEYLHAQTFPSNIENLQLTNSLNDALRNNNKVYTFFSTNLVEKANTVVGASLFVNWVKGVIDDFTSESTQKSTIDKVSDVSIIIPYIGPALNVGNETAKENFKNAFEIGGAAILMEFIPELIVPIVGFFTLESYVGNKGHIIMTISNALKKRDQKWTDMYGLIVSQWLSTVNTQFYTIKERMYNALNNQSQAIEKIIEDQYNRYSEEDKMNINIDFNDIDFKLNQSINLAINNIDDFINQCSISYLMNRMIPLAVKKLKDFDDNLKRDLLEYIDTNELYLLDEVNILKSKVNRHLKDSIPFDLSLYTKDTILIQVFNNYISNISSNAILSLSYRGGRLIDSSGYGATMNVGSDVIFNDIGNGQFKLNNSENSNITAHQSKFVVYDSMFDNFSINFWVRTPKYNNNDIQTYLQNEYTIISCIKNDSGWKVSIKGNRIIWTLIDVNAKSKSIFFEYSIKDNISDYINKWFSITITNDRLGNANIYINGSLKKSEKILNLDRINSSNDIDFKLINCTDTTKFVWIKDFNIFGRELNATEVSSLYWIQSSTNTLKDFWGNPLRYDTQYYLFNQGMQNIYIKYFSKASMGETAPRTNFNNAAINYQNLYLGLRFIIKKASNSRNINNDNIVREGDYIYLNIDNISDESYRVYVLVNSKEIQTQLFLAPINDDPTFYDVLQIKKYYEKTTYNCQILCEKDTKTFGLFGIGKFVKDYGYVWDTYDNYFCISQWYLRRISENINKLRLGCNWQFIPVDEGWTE

[7] = biological target: T1, inactive BoNT/G (BoNT/Gi); experiment: titration on yeast-displayed scFv, flow cytometry, fit y = m1 + m2*M0/(m0+m3)
[8] = biological target: T2, active BoNT/G holotoxin (Clostridium botulinum, UniProt Q60393 2-1297); experiment: KinExA, IgG
T2 sequence: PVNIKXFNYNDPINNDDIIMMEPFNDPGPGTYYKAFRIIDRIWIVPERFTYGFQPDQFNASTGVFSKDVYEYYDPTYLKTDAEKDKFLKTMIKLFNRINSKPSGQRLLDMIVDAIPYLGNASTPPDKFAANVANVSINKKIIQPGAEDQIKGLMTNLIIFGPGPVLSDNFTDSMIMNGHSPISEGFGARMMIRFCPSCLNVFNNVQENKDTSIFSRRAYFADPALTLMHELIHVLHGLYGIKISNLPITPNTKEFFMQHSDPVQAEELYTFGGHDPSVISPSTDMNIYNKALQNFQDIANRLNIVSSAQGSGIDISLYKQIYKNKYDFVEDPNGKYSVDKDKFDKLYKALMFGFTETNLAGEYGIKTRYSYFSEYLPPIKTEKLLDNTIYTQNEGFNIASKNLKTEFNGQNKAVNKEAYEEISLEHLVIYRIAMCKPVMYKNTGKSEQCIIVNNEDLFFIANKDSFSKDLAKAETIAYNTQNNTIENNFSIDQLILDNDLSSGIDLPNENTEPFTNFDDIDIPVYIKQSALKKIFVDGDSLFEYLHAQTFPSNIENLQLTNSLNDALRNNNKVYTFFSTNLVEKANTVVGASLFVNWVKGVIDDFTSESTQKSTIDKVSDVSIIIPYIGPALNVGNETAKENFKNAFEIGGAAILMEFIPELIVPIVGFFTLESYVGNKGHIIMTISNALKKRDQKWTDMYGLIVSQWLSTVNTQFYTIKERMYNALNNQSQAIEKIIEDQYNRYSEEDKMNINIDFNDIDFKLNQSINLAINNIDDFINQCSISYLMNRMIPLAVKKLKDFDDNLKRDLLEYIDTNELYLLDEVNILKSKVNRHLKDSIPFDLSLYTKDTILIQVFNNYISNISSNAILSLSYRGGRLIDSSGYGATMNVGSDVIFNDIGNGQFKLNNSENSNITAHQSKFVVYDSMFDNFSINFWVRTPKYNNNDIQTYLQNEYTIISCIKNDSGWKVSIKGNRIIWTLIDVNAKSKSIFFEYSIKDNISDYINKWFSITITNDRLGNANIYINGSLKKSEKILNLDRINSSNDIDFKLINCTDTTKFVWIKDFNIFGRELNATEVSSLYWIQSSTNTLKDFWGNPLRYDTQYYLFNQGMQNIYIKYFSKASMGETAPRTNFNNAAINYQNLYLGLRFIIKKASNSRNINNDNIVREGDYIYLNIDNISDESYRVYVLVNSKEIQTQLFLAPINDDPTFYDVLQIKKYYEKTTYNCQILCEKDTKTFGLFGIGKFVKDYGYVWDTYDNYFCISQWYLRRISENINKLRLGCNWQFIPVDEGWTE

[9] = biological target: T2, active BoNT/G holotoxin; experiment: KinExA, IgG; remark: listed apart in the source

B1: 6G9A2 (scFv, V domains shown)
VH: QVQLVQSGAEVKKPGASVKMSCKASGYTFTSYWMHWVRQAPGQGLEWIGYINPSTGYTEYNQKFKDRATLTADKSTSTAYMELRSLRSDDTAVYYCARGGNYVDYWGQGTTLTVSS
VL: DVVMTQSPSFLSASVGDRVTVTCRASQSIGSWLAWYQQKPGKAPKLLIYAASSLQSGVPSRFSASGSGTDFTLTISSLQPDDFATYFCHRLNSYPLTFGGGTKVEIK
B1 showed a Kd [1] of 6.2 nM.

B2: 6G9B9 (scFv, V domains shown)
VH: QVQLVQSGAEVKKPGASVKMSCKASGYTFTSYWMHWVRQAPGQGLEWIGYINPSTGYTEYNQKFKDRATLTADKSTSTAYMELRSLRSDDTAVYYCARGGNYVDYWGQGTTLTVSS
VL: DIQMTQSPSTLSASVGERVTITCRASQGISSWLAWYQQKPGKAPKRLIYAVSTLQTGVPSRFSGSGSGTDLTLTINSLQPEDFATYYCQHLNSYPLTFGGGTKVEIK
B2 was tested, and the Kd [1] was 3.78 nM.

B3: hu6G7.1A5 (scFv, V domains shown)
VH: QVQLVQSGAEVKKPGASVKVSCKASDYSFTDYNIYWVRQAPGQGLEWIGYIDPYNGGTSYNQKFKGRATLTVDKSISTAYMELSRLRSDDTAVYYCALYGYDPDYIDYWGPGTTLTVSS
VL: DIVLTQSPASMAASPGQRVTITCSASSSVSYLHWFQQKPGQSPKLMIYGTSNLASGVPVRFSGSGSGTSYSLTINPMEAEDTATYYCQQRSSYPYTFGQGTKLEIK
In the case of B3, the Kd [1] is reported as 4.91 nM.

B4: hu6G7.1D6 (scFv, V domains shown)
VH: QVQPVQSGAEVKKPGASVKVSCKASDYSFTDYNIYWVRQAPGQGLEWIGYIDPYNGGTSYNQKYRGRATLTVDKSINTAYMELSRLRSDDTAVYYCALYGYDPDYIEYWGQGTTLTVSS
VL: DIVLTQSPASMAASPGQRVTITCSASSSVSYLHWFQQKPGQSPKLWIYSTSNLASGVPARFSGSGSGTDYTLTINPMEAEDTATYYCQQRSSYPYTFGQGTKLEIK
B4 gave a Kd [1] of 5.03 nM.

B5: hu6G6 scFv (scFv)
scFv: QVQLVQSGAEVKKPGASVKLSCKASGFNIKDTYMHWVRQAPGQGLEWIGRIDPANGNTKYDPKFQGRATITADTSINTAYLELSRLRSDDTAVYYCASGPNYYGTTWFAYWGQGTTVTVSSVDLKSGGSTSGSGKPGSGEGSSGSAREIVLTQSPSTLSASVGDRVTITCRASHGISNYLAWYQQKPGRAPKLLIYKASTLHIGVPSRFSGSGSGTEFALTISSLQPDDFSTYYCQQYNSYLPHTFGQGTRLEIK
B5 was tested, and the Kd [2] was 5 nM, the fold improvement over parental 6G6 [2] was greater than 3 fold and the Kd [3] was 23.2 nM. The Kd [4] was 23 nM.

B6: hu6G9B10 scFv (scFv)
scFv: QVQLVQSGAEVKKPGASVKMSCKASGYTFTSYWMHWVRQAPGQGLEWIGYINPSTGYTEYNQKFKDRATLTADKSTSTAYMELRSLRSDDTAVYYCARGGNYVDYWGQGTTLTVSSVDLKSGGSTSDSGKPGSGEGSSGSARDIQMTQSPSTLSASVGERVTITCRASQDISSWLAWYQQKPGKAPKRLIYAVSTLQTGVPSRFSGSGSGTDLTLTINSLQPEDFATYYCQDLNSYPLTFGGGTKVEVK
In the case of B6, the Kd [3] is reported as 2.35 nM and the fold improvement in affinity over hu6G9 WT [3] is reported as 9 fold.

B7: Hu6G9.1 scFv (scFv)
scFv: QVQLVQSGAEVKKPGASVKMSCKASGYTFTSYWMHWVRQAPGQGLEWVGYINPSTGYTEYNQKFKDRATLTADKSTSTAYMELRSLRSDDTAVYYCARGGNYVDYWGQGTTLTVSSVDLKSGGSTSGSGKPGSGEGSSGSARDIQMTQSPSTLSASVGERVTITCRASHGISSWLAWYQQKPGKAPKRLIYAVSTLQTGVPSRFSDSGSGTDLTLTINSLQPEDFATYYCQDLNSYPLSFGGGTKVEIK
B7 showed a fold improvement in affinity over hu6G9 WT [3] of 9 fold, a Kd [4] of 2.04 nM and a fold improvement over wild type hu6G9 [5] of 9 fold.

B8: Hu6G7.1 scFv (scFv, V domains shown)
VH: QVQLVQSGAEVKKPGASVKVSCKASDYSFTDYNIYWVRQTPGQGLEWIGYIDPYNGGTSYNQKFKGRATLTVDKSISTAYMELSRLRSDDTAVYYCALYGYDPDYIDYWGQGTTLTVSS
VL: DIVLTQSPASMAVSPGQRVTITCSASSSVSYLHWFQQKPGQSPKLWIYSTSNLASGVPARFSGSGSGTDYTLTINPMEAEDTATYYCQQRSSYPYTFGQGTKLEIKR
Binder B8 has a Kd [6] of 3.2 nM and a Kd [7] of 3.2 nM.

B9: hu6G6.1 IgG (antibody, V domains shown)
VH: QVQLVQSGAEVKKPGASVKLSCKASGFNIKDTYMHWVRQAPGQGLEWIGRIDPENGNTKYDPKFQGRATITAYKSINTAYLELSRLRSDDTAVYYCASGPNYYGTTWFAYWGQGTTVTVSS
VL: EIVLTQSPSTLSASVGDRVTITCRASHGISNYLAWYQQKPGRAPKLLIYKASTLHIGVPSRFSGSGSGTEFALTISSLQPDDFSTYYCQQYNSYLPHTFGQGTRLEIKR
For B9, the Kd [8] was 0.476 nM, the “fold improvement over hu6G6” value [8] was 18 fold and the Kd [9] was 0.47 nM.

B10: Hu6G10 IgG (antibody, V domains shown)
VH: QVQLVQSGAEVKKPGATVKISCKASGYSFTGYFMHWVRQAPGKGLEWIGRINPYNGDIIYNQNFKDRATLTVDKSTSTAYMELSSLRSEDTAVYYCASLFGLYYFDYWGQGTTLTVSS
VL: DVVMTQSPSSVSASVGDRVTITCRASQRISNHLNWYQQKPGKAPKRLIYAASSLESGVPSRFSGSGSGTEFTLTISSLQPEDFATYFCLQHNSYPYTFGQGTKVEIKR
For B10, the “fold improvement over 6G10 (IgG KD)” value [8] was 39 fold and the Kd [9] was 0.00836 nM.

B11: Hu6G11.3 scFv (scFv, V domains shown)
VH: QVQLVQSGAEVAKPGASVKMSCKASGYTFTSYWMHWVRQAPGQGLEWIGYINPSTGYTEYNQKFKDRATLTADKSTSTAYMELSSLRSEDTAVYYCARGYFSFAYWGQGTLVTVSS
VL: EIVLTQSPSTLSASIGDRVTITCRASEGIYHWLAWYQQKPGKAPKLLIYKASSLASGAPSRFSGSGSGTDFSLTISSLQPEDSATYFCQQAHSFPPTFGGGTKVDIKR
Work on B11 yielded a Kd [6] of 0.32 nM.
